From IntAct's records for PubMed 20133654

Tests used:
[1] = target: obscn_human OBSCN (UniProt Q5VST9)
[2] = target: obsl1_human OBSL1 (UniProt O75147)
Sequence of obsl1_human OBSL1 (O75147 whole entry): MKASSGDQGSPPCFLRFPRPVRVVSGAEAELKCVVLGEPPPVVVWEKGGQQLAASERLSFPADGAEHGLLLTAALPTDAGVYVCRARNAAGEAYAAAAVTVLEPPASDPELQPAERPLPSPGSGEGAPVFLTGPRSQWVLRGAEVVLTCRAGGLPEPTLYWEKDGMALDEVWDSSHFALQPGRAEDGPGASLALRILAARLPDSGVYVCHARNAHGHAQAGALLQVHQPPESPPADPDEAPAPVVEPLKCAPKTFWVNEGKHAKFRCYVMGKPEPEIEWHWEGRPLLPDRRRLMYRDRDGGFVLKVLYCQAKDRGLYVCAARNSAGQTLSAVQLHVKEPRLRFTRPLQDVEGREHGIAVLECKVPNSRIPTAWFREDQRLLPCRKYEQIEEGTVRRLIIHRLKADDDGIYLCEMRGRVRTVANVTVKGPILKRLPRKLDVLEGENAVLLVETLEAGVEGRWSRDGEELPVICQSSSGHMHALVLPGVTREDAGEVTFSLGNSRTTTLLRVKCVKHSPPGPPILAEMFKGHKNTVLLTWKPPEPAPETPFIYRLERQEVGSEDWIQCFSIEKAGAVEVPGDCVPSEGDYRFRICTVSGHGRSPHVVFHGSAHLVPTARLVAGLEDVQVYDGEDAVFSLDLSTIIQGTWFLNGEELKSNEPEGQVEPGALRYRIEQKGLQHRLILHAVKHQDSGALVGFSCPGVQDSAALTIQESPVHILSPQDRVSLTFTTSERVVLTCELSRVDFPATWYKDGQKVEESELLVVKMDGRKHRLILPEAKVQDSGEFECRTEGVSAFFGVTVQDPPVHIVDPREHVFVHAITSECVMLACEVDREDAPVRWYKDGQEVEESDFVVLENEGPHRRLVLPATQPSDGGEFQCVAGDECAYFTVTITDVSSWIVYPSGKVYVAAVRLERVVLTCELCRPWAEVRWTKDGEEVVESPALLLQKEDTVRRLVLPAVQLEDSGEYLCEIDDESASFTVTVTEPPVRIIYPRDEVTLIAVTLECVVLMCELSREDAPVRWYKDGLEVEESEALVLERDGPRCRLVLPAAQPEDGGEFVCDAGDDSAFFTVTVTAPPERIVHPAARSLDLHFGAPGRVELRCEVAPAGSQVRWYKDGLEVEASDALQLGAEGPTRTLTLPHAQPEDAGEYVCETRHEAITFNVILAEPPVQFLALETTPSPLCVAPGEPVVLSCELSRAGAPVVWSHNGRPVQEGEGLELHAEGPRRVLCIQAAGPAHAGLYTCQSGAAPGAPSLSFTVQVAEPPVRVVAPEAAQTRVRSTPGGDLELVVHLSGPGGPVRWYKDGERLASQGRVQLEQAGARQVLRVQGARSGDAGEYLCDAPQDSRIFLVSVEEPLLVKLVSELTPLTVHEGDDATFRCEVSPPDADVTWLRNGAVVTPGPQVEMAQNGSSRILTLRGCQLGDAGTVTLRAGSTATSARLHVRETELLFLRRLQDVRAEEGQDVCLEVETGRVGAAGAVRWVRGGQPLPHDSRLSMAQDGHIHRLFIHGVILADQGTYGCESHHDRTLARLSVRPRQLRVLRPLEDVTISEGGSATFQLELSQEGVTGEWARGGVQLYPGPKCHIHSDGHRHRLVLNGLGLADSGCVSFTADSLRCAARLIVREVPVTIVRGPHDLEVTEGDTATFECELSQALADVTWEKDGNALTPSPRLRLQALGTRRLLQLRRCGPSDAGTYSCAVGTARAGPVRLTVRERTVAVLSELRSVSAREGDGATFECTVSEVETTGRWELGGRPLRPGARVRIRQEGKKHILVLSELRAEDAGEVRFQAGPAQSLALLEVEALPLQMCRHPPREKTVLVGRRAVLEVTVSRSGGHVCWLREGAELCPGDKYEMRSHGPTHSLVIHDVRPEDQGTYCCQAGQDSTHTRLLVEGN

effect of a mutation on the interaction [1]	effect of a mutation on the interaction [2]	Substance
increasing interaction		Titin (Homo sapiens), Q8WZ42 I34306N
disrupting interaction	disrupting interaction	Titin (Homo sapiens), Q8WZ42 A34260Y
